These results are taken from patent publication US20230257479A1 (Genmab, published 2023).

The target in assay [1] is T1, full length cynomolgus monkey 5T4 on transfected HEK-293 cells (cynomolgus monkey, UniProt Q4R8Y9 35-420).
T1 construct: Uniprot Q4R8Y9; residues 1-34 are the signal peptide; also called cynomolgus 5T4
T1 sequence: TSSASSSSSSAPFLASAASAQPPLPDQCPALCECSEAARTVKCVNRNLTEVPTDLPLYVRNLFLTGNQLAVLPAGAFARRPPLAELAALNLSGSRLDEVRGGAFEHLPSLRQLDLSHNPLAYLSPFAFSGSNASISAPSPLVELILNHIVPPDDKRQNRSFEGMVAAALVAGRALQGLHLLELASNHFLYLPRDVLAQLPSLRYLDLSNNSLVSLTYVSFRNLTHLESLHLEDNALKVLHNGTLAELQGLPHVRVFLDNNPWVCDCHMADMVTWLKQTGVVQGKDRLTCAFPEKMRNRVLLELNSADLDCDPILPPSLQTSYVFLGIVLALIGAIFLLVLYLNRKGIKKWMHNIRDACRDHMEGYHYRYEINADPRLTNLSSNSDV
The assay can be described thus: flow cytometry, HEK-293 cells transfected with cynomolgus monkey 5T4, PE secondary [II)G]. Background: In flow cytometry, cells or beads pass a laser one at a time.

For assay [2], the target named is T1, full length cynomolgus monkey 5T4 on …. The assay can be described thus: flow cytometry, HEK-293 cells transfected with cynomolgus monkey 5T4, PE secondary [II)I].
Assay [3] deals with T2, full length human 5T4 (SEQ ID NO: 1) on cells (human, UniProt Q13641 32-420).
T2 construct: Uniprot Q13641; residues 1-31 are the signal peptide; Used both for transfected HEK-293 cells and for 5T4-expressing human tumor cell lines
T2 sequence: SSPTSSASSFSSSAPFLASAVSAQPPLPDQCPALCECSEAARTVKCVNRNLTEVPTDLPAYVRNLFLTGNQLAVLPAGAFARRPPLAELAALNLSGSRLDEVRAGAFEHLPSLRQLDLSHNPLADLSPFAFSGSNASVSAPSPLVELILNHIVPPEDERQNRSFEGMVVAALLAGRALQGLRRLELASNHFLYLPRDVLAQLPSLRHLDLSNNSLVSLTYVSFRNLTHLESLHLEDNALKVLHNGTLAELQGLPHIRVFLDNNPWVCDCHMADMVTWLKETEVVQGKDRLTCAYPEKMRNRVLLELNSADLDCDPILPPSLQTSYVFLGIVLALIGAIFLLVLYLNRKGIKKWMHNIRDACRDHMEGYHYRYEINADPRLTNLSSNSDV
The assay can be described thus: flow cytometry, HeLa cells, PE secondary [II)H].

The target of assay [4] is T3, human 5T4ECDHis (mature protein of SEQ ID NO: 99) (human, UniProt Q13641 32-355).
T3 construct: ECD of human 5T4 (aa 1-355 of Uniprot Q13641) with C-terminal His tag; residues 1-31 are the signal peptide; also called ECD of human 5T4 with a C-terminal His tag
T3 sequence: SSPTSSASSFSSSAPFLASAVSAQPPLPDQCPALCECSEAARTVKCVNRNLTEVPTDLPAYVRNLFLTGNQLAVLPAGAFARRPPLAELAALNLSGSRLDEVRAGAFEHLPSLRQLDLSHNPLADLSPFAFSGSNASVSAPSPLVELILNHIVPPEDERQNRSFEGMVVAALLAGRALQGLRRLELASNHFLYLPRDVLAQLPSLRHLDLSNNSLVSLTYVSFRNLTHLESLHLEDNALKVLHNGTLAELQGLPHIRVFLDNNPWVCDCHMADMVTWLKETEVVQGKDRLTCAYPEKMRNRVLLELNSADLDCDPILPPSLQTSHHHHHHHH
Kind of assay: BLI cross-block; competitor (immobilised): IgG1-5T4-H8-FEAR.

In assay [5] the target is T3, human 5T4ECDHis (mature protein of SEQ …). The assay can be described thus: BLI cross-block; competitor (immobilised): IgG1-5T4-A1-F405L.
The target is the same in assay [6]. The assay can be described thus: BLI cross-block; competitor (immobilised): IgG1-5T4-085-FEAR.
Assay [7] shares this target. The assay can be described thus: BLI cross-block; competitor (immobilised): IgG1-5T4-A3-F405L.
Assay [8] has the same target. The assay can be described thus: BLI cross-block; competitor (immobilised): IgG1-5T4-127-FEAR.
Assay [9] shares this target. Kind of assay: BLI cross-block; competitor (immobilised): IgG1-5T4-106-FEAR.
Assay [10] has the same target. The assay can be described thus: BLI cross-block; competitor (immobilised): IgG1-5T4-076-FEAR.
Assay [11] deals with T2, full length human 5T4 (SEQ ID NO: 1) on …. Kind of assay: flow cytometry, HEK-293 cells transfected with human 5T4, PE secondary [II)E].
In assay [12] the target is T1, full length cynomolgus monkey 5T4 on …. Kind of assay: flow cytometry, HEK-293 cells transfected with cynomolgus monkey 5T4, PE secondary [II)E].
In assay [13] the target is T3, human 5T4ECDHis (mature protein of SEQ …). Kind of assay: BLI cross-block; competitor (immobilised): IgG1-5T4-226-FEAR.
For assay [14] the target is unchanged. Kind of assay: BLI cross-block; competitor (immobilised): IgG1-5T4-059-FEAR.
Assay [15] shares this target. The assay can be described thus: BLI cross-block; competitor (immobilised): IgG1-5T4-207-FEAR.
For assay [16] the target is unchanged. The assay can be described thus: BLI, antibody on anti-human IgG Fc Capture biosensor, antigen in solution. In general terms: BLI is a label-free optical method that tracks binding on a fibre tip over time.
In assay [17] the target is T2, full length human 5T4 (SEQ ID NO: 1) on …. The assay can be described thus: flow cytometry, HEK-293 cells transfected with human 5T4, FITC secondary [I)D].

The term EC50 (read off the curve) denotes the concentration that produces a half-maximal response. Broadly, the Kd is the concentration at which binding is half-saturated. What is called koff is the first-order rate constant of dissociation. In general, kon refers to the rate constant with which the complex forms.

B1: bsIgG1-huCD3-H101G-FEALx5T4-127-FEAR (bispecific antibody)
heavy: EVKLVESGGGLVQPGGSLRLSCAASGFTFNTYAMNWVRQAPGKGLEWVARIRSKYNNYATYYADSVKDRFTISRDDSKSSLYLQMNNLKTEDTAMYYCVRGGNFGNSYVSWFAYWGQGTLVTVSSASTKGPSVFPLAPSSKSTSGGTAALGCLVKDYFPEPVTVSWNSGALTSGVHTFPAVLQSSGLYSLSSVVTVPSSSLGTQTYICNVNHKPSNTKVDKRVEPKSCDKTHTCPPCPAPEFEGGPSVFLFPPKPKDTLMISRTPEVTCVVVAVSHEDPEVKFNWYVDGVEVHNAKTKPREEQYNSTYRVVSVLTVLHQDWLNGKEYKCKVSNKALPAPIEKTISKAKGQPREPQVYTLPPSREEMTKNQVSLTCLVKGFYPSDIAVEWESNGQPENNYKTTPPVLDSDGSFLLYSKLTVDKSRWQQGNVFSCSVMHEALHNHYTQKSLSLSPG
light: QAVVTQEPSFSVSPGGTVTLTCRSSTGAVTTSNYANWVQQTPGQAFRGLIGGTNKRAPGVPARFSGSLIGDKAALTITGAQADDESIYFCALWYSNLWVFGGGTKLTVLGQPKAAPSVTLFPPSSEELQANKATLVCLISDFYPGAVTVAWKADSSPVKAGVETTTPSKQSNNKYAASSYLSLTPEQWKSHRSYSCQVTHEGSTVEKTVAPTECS
VH: EVQLLESRGGLVQPGGSLRLSCAASGFTFSSYAMSWVRQAPGKGLEWVSTISGSGGSTYYADSVKGRFTISRDNSKKTLYLQMNSLRAEDTAVYYCAKDWGSGSYPAEYFQHWGQGTLVTVSS
VL: EIVLTQSPATLSLSPGERATLSCRASQSVSSYLAWYQQKPGQAPRLLIYDASNRATGIPARFSGSGSGTDFTLTISSLEPEDFAVYYCQQRSNWLMYTFGQGTKLEIK
notes: Fab-arm exchange product
As to B1, the “EC50 (read off the curve)” value in assay [1] is around 0.1 µg/mL.

B2: bsIgG1-huCD3-H101G-FEALx5T4-A3-FEAR (bispecific antibody)
heavy: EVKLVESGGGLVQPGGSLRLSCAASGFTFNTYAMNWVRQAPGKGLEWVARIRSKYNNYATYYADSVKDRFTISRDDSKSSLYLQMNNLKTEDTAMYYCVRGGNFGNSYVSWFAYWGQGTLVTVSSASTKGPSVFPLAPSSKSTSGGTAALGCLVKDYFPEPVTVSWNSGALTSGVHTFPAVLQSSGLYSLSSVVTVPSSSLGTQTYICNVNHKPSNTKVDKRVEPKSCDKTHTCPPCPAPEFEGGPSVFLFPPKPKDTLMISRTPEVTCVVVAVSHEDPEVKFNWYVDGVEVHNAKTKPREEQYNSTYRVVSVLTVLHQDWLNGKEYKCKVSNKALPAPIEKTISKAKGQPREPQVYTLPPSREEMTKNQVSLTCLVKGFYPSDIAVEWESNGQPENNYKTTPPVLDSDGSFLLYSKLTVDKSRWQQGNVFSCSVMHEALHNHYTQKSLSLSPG
light: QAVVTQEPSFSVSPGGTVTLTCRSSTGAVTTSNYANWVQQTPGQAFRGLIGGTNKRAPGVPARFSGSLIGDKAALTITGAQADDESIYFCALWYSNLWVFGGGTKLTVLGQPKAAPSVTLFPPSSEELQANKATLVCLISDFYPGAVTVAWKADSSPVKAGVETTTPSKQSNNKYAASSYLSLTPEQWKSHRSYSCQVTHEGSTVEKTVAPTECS
VH: EVQLVESGGGLVQPKGSLKLSCAASGFTFNTYAMNWVRQAPGKGLEWVARIRSKSNNYATYYADSVKDRFTISRDDSQSMLYLQMNNLKTEDTAMYYCVRQWDYDVRAMNYWGQGTSVTVSS
VL: DIVMTQSHIFMSTSVGDRVSITCKASQDVDTAVAWYQQKPGQSPKLLIYWASTRLTGVPDRFTGSGSGTDFTLTISNVQSEDLADYFCQQYSSYPYTFGGGTKLEIK
notes: Fab-arm exchange product
For the molecule B2, the binding result in assay [2] and in [3] was “binds” in each case.

B3: IgG1-5T4-A3-F405L (antibody, V domains shown)
VH: B2 VH
VL: B2 VL
notes: Variable region of A3 of WO2007106744 in a human IgG1 backbone with F405L; also called surrogate A3 antibody
For the molecule B3, the corrected association response in [4] was 0.49 nm; in assay [5], 0.76 nm; in assay [6], -0.01 nm; in [7], 0.01 nm; in assay [8] it was -0.01 nm; in [9] it was 0.56 nm. The same molecule had a corrected association response in assay [10] of 0 nm.

B4: IgG1-5T4-A3-FEAR (antibody, V domains shown)
VH: B2 VH
VL: B2 VL
notes: Based on A3 from Wyeth; IgG1 with L234F, L235E, D265A, K409R (FEAR)
B4: in assay [2], the concentration for a half-maximal effect (EC50 (read off the curve)) was around 0.1 µg/mL. Moreover, the binding result in assay [3] is reported as “binds”.

B5: bsIgG1-huCD3-H101G-FEALx5T4-076-FEAR (bispecific antibody)
heavy: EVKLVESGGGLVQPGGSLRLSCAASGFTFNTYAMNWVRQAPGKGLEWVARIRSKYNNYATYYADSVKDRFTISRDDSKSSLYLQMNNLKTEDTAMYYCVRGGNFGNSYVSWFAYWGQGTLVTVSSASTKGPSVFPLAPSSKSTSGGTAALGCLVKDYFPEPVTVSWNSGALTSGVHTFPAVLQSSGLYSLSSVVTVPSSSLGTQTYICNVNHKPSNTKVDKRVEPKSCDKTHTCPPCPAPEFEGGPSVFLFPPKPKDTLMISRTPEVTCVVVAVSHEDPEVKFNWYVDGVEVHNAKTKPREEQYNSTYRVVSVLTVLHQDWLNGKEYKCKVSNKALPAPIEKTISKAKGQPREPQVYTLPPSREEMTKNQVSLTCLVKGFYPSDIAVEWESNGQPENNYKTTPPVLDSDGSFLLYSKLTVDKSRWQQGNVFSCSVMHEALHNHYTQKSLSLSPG
light: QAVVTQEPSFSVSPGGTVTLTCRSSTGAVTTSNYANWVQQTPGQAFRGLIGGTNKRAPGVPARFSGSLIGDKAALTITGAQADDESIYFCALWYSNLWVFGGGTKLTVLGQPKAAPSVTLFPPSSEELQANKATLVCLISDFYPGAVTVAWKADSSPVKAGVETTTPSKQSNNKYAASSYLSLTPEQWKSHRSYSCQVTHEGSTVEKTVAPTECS
VH: QVQLVQSGAEVKKPGASVKVSCKASGYTFTSYGISWVRQAPGQGLEWMGWISAYNGNTNYAQKLQGRVTMTTDTSTRTAYMELRSLRSDDTAVYYCARDPGYFDWLYGDYWGQGTLVTVSS
VL: AIQLTQSPSSLSASVGDRVTITCRASQGISSALAWYQQKPGKAPKLLIYDASSLESGVPSRFSGSGSGTDFTLTISSLQPEDFATYYCQQFNSYPRTFGQGTKVEIK
notes: Fab-arm exchange product
Take B5: in assay [11], the binding result was “binds”. For the same molecule, in assay [12], the “EC50 (read off the curve)” value was around 0.4 µg/mL.

B6: IgG1-5T4-076-FEAR (antibody, V domains shown)
VH: B5 VH
VL: B5 VL
notes: Monospecific, bivalent human IgG1 kappa with L234F, L235E, D265A, K409R (FEAR)
Turning to B6, the corrected association response was 1.47 nm in [13]; -0.02 nm in [4]; 0.36 nm in [5]; -0.01 nm in [6]; 0 nm in assay [14]; 0 nm in [7]. Moreover, the corrected association response in assay [15] was 1.22 nm; in assay [8], -0.02 nm; in [9], -0.03 nm; in assay [10] it was -0.01 nm. The entries for the concentration for a half-maximal effect (EC50 (read off the curve)) in assay [11] and in assay [12] were around 0.3 µg/mL and around 0.008 µg/mL, respectively.

B7: IgG1-5T4-A1-F405L (antibody, V domains shown)
VH: QIQLVQSGPELKKPGETVKISCKASGYTFTNFGMNWVKQGPGEGLKWMGWINTNTGEPRYAEEFKGRFAFSLETTASTAYLQINNLKNEDTATYFCARDWDGAYFFDYWGQGTTLTVSS
VL: SIVMTQTPKFLLVSAGDRVTITCKASQSVSNDVAWYQQKPGQSPKLLINFATNRYTGVPNRFTGSGYGTDFTFTISTVQAEDLALYFCQQDYSSPWTFGGGTKLEIK
notes: Variable region of A1 of WO2007106744 in a human IgG1 backbone with F405L; also called surrogate A1 antibody
As for B7, the corrected association response is 1.56 nm in [13]; 0.64 nm in assay [4]; -0.01 nm in assay [5]; 0.07 nm in [6]; 0.96 nm in assay [14]; 0.69 nm in assay [7]. Also, the corrected association response is 1.29 nm in [15], 0.15 nm in assay [8], 0.79 nm in assay [9] and 0.04 nm in assay [10].

B8: IgG1-5T4-H8-FEAR (antibody, V domains shown)
VH: EVQLQQSGPDLVKPGASVKISCKASGYSFTGYYMHWVKQSHGKSLEWIGRINPNNGVTLYNQKFKDKAILTVDKSSTTAYMELRSLTSEDSAVYYCARSTMITNYVMDYWGQVTSVTVSS
VL: SIVMTQTPTFLLVSAGDRVTITCKASQSVSNDVAWYQQKPGQSPTLLISYTSSRYAGVPDRFIGSGYGTDFTFTISTLQAEDLAVYFCQQDYNSPPTFGGGTKLEIK
notes: Based on 5T4 antibody H8 from Wyeth (WO 2007/106744); IgG1 with L234F, L235E, D265A, K409R (FEAR); also called IgG1-5T4-HS-FEAR; IgG1-5T4-H8-FEAR-FITC
On to B8, for which the corrected association response in [13] is -0.01 nm; in [4] it was 0 nm; in [5] it was 0.89 nm; in assay [6] it was -0.01 nm; in assay [14], 0.01 nm; in assay [7] it was 0.5 nm. Further, the corrected association response in [15] is -0.01 nm; in assay [8] it was -0.02 nm; in [9], -0.02 nm; in [10] it was 0 nm. In [16], this molecule returned a Kd of 1.3 nM. Also, the koff in assay [16] is 0.00029 s⁻¹. Moreover, in assay [16], the kon was 220000 M⁻¹ s⁻¹. The “EC50 (read off the curve)” value in assay [17] is around 0.1 µg/mL.
